Reference: doi:10.1101/2024.11.26.625467

Molecular target: CO17 B NA (neuraminidase head of B/Colorado/06/2017, B/Victoria-lineage) (influenza B virus B/Colorado/06/2017)
Test: cryo-EM structure

For “CO17 B NA (neuraminidase head of B/Colorado/06/2017, B/Victoria-lineage) (domain or fragment)”, the stoichiometry N was 4.
